Data reported in paper PMC4220118, “Exploring nicotinamide cofactor promiscuity in NAD(P)H-dependent flavin containing monooxygenases (FMOs) using natural variation within the phosphate binding loop. Structure and activity of FMOs from Cellvibrio sp. BR and Pseudomonas stutzeri NF13” (Journal of Molecular Catalysis. B, Enzymatic, 2014).

Assays:
[1] = molecular target: T1, CFMO (Cellvibrio sp. BR, UniProt I3IEE4); assay: X-ray crystal structure, […] Å; format: binding; details: oxidised FAD at domain interface; co-purified; non-cleaved His-tagged protein
T1 construct: gene O59_000450; 361 aa; codon-optimised gene in pET-YSBL-LIC-3C, N-terminal 3C-cleavable His6 tag (crystals: non-cleaved protein), E. coli BL21(DE3); dimer
T1 sequence (I3IEE4 1-361): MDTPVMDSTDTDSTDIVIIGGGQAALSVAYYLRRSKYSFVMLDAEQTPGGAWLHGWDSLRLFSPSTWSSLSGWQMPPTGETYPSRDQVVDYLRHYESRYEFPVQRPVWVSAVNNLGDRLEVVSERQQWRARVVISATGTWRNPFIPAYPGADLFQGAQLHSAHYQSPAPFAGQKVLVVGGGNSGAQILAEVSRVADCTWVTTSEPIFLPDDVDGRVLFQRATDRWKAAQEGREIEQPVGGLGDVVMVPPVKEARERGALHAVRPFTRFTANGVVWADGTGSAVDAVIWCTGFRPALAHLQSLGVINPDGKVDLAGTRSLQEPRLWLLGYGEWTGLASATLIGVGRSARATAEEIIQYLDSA

[2] = molecular target: T2, PSFMO (Stutzerimonas stutzeri, UniProt M2V3J0); assay: X-ray crystal structure, […] Å; format: binding; details: oxidised FAD; co-purified; tag-cleaved protein
T2 construct: gene B381_09411; 358 aa; codon-optimised gene in pET-YSBL-LIC-3C, N-terminal 3C-cleavable His6 tag (crystals: tag cleaved, linker Gly-2 Pro-1 Ala0 seen), E. coli BL21(DE3)
T2 sequence (M2V3J0 1-358): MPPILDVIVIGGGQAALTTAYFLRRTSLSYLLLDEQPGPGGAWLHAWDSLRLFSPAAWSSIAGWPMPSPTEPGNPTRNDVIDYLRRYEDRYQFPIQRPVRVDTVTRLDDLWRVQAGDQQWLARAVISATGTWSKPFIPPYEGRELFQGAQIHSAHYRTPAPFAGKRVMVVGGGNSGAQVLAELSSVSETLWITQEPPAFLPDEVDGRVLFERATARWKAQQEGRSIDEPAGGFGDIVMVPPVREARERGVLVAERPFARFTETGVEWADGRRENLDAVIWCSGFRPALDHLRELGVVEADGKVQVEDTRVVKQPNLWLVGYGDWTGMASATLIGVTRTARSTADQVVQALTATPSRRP

[3] = substrate: NC(=O)C1=CN([C@@H]2O[C@H](COP(=O)(O)OP(=O)(O)OC[C@H]3O[C@@H](n4cnc5c(N)ncnc54)[C@H](OP(=O)(O)O)[C@@H]3O)[C@@H](O)[C@H]2O)C=CC1; assay: purified protein; format: biochemical, Stutzerimonas stutzeri; details: Tris-HCl pH 7.5, 3.9 nmol enzyme in 1 mL, NADPH 10-100 μM
[4] = substrate: NC(=O)C1=CN([C@@H]2O[C@H](COP(=O)(O)OP(=O)(O)OC[C@H]3O[C@@H](n4cnc5c(N)ncnc54)[C@H](O)[C@@H]3O)[C@@H](O)[C@H]2O)C=CC1; assay: purified protein; format: biochemical, Stutzerimonas stutzeri; details: Tris-HCl pH 7.5, 3.9 nmol enzyme in 1 mL, NADH 10-100 μM
[5] = molecular target: the molecule itself; assay: SEC; size-exclusion studies of PSFMO (not shown)
[6] = substrate: NC(=O)C1=CN([C@@H]2O[C@H](COP(=O)(O)OP(=O)(O)OC[C@H]3O[C@@H](n4cnc5c(N)ncnc54)[C@H](OP(=O)(O)O)[C@@H]3O)[C@@H](O)[C@H]2O)C=CC1; assay: purified protein; format: biochemical, Cellvibrio sp. BR; details: Tris-HCl pH 7.5, 3.9 nmol enzyme in 1 mL, NADPH 10-100 μM
[7] = substrate: NC(=O)C1=CN([C@@H]2O[C@H](COP(=O)(O)OP(=O)(O)OC[C@H]3O[C@@H](n4cnc5c(N)ncnc54)[C@H](O)[C@@H]3O)[C@@H](O)[C@H]2O)C=CC1; assay: purified protein; format: biochemical, Cellvibrio sp. BR; details: Tris-HCl pH 7.5, 3.9 nmol enzyme in 1 mL, NADH 10-100 μM

Q: `Cc1cc2nc3c(=O)[nH]c(=O)nc-3n(C[C@H](O)[C@H](O)[C@H](O)COP(=O)(O)OP(=O)(O)OC[C@H]3O[C@@H](n4cnc5c(N)ncnc54)[C@H](O)[C@@H]3O)c2cc1C` [FAD] was tested. Which “X-ray crystal structure, 2.39 Å” value [1] did it give?
A: This was successfully modelled and refined as FAD in the flat, oxidised form

Q: And the “X-ray crystal structure, 1.83 Å” value [2]?
A: FAD was again clearly visible in the omit map after building and refinement

B1: Flavin-containing monooxygenase from Pseudomonas stutzeri NF13 (PSFMO), as used in size-exclusion studies (enzyme, UniProt M2V3J0 1-358, looked up)
chain: MPPILDVIVIGGGQAALTTAYFLRRTSLSYLLLDEQPGPGGAWLHAWDSLRLFSPAAWSSIAGWPMPSPTEPGNPTRNDVIDYLRRYEDRYQFPIQRPVRVDTVTRLDDLWRVQAGDQQWLARAVISATGTWSKPFIPPYEGRELFQGAQIHSAHYRTPAPFAGKRVMVVGGGNSGAQVLAELSSVSETLWITQEPPAFLPDEVDGRVLFERATARWKAQQEGRSIDEPAGGFGDIVMVPPVREARERGVLVAERPFARFTETGVEWADGRRENLDAVIWCSGFRPALDHLRELGVVEADGKVQVEDTRVVKQPNLWLVGYGDWTGMASATLIGVTRTARSTADQVVQALTATPSRRP
notes: PSFMO, putative FMO from Pseudomonas stutzeri NF13, Uniprot M2V3J0, 358 amino acids; synthetic gene amplified with primers from the ATG start codon to the stop codon; Same construct as m2
Q: Which results are given for B1?
A: Km [3]: 17 ± 2.0 µM; kcat [3]: 0.04 s⁻¹; kcat/Km [3]: 2350 M⁻¹ s⁻¹; Km [4]: 16 ± 2 µM; kcat [4]: 0.03 s⁻¹; kcat/Km [4]: 1880 M⁻¹ s⁻¹; stoichiometry N [5]: 2

B2: CFMO (Cellvibrio sp. BR) (protein)
chain: MDTPVMDSTDTDSTDIVIIGGGQAALSVAYYLRRSKYSFVMLDAEQTPGGAWLHGWDSLRLFSPSTWSSLSGWQMPPTGETYPSRDQVVDYLRHYESRYEFPVQRPVWVSAVNNLGDRLEVVSERQQWRARVVISATGTWRNPFIPAYPGADLFQGAQLHSAHYQSPAPFAGQKVLVVGGGNSGAQILAEVSRVADCTWVTTSEPIFLPDDVDGRVLFQRATDRWKAAQEGREIEQPVGGLGDVVMVPPVKEARERGALHAVRPFTRFTANGVVWADGTGSAVDAVIWCTGFRPALAHLQSLGVINPDGKVDLAGTRSLQEPRLWLLGYGEWTGLASATLIGVGRSARATAEEIIQYLDSA
notes: 361 aa; codon-optimised gene in pET-YSBL-LIC-3C, N-terminal 3C-cleavable His6 tag (crystals: non-cleaved protein), E. coli BL21(DE3); dimer
Q: For B2, which Km [6] is on record?
A: 5 ± 1 µM

Q: What about the kcat [6] of the same molecule?
A: 0.02 s⁻¹

Q: What about the kcat/Km [6] of the same molecule?
A: 4000 M⁻¹ s⁻¹

Q: What about the Km [7] of the same molecule?
A: 3 ± 1 µM

Q: What about the kcat [7] of the same molecule?
A: 0.02 s⁻¹

Q: And the kcat/Km [7]?
A: 6670 M⁻¹ s⁻¹
